Assays:
[1] = biological target: O-acetylserine sulfhydrylase from Entamoeba histolytica (Entamoeba histolytica); experiment: SEC; 120-ml Superdex S-200 column, buffer A (50 mM potassium phosphate, 300 mM KCl, pH 7.5, 10% glycerol), 0.7 mL/min
[2] = biological target: T1, cytochrome bo3 (heme-copper bo3 oxidase) (Escherichia coli, UniProt P0ABI8); experiment: O2 consumption, high-resolution respirometry (Oxygraph-2k); Hill fit with n = […]; assay type: biochemical
T1 construct: gene cyoB; dodecyl maltoside micelles; with Cytochrome bo(3) ubiquinol oxidase subunit 2; Cytochrome bo(3) ubiquinol oxidase subunit 3; Cytochrome bo(3) ubiquinol oxidase subunit 4
T1 sequence (P0ABJ3 whole entry): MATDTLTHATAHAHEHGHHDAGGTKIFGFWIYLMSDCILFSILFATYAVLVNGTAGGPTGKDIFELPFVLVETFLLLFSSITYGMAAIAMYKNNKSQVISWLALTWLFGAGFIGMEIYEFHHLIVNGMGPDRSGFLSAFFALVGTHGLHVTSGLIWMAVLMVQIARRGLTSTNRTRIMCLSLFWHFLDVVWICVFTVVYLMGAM
T1 sequence (P0ABI8 whole entry): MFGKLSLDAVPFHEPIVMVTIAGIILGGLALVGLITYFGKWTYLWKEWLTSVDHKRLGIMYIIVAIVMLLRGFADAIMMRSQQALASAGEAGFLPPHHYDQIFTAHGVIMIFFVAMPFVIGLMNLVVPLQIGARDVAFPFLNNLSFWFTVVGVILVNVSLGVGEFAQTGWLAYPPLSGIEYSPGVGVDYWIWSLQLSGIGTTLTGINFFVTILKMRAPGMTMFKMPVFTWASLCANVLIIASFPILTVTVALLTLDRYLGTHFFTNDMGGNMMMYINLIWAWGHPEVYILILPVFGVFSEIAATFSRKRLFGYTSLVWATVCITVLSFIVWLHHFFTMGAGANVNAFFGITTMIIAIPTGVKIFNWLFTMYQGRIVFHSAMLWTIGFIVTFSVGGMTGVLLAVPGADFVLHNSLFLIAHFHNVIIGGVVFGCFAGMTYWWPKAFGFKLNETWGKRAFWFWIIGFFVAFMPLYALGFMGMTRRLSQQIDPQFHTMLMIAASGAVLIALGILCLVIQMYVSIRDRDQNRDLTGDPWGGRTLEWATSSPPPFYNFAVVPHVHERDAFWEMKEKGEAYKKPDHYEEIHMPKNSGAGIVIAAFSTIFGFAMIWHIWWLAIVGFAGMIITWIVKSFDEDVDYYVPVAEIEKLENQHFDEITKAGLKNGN
T1 sequence (P0ABJ1 25-315, further chain): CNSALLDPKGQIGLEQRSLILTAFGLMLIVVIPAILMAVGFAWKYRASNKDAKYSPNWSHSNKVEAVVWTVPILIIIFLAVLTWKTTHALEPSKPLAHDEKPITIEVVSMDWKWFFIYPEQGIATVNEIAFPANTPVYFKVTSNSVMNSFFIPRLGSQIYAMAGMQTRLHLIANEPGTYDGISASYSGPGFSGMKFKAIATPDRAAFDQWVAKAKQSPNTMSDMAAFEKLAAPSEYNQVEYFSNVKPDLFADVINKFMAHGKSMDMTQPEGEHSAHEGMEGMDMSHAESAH
T1 sequence (P0ABJ6 whole entry, further chain): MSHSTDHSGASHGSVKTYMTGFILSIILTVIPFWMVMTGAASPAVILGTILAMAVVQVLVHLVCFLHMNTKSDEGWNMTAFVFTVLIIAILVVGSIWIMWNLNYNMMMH

Row | stoichiometry N [1] | Compound | IC50 [2] [nM]
1 | 2 | O-acetylserine sulfhydrylase from Entamoeba histolytica (enzyme) | –
2 | – | S [NaHS] | 1100 ± 100
